Measured values published in patent US20200385730, “Aptamers Against Clostridium Difficile” (Biovector, Inc., published 2020).

Legend:
[1] = molecular target: T1, CotA (Clostridium difficile, UniProt Q186G8 SEQ:1-305); assay: BLI; slower association, little dissociation; settings: tags: His6
T1 sequence: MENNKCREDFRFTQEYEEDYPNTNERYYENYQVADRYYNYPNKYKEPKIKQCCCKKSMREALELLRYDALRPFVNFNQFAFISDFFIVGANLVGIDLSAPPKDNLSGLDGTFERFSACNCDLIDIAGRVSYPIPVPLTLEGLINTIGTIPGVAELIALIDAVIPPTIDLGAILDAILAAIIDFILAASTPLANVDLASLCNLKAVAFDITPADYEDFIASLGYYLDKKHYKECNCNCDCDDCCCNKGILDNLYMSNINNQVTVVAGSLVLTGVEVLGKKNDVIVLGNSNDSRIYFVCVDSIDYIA
Experimental: The refined pools (characterized in FIGS. 21-25) were taken forwards for monoclonal isolation. All aptamers were purified (after elution) and resuspended and stored in water. Before use in selections or binding assays, aptamers were diluted in a final concentration 1× buffer. Individual aptamer clones were isolated and screened by BLI using aptamer concentrations of 0.5 μM, 1 μM, or 2 μM. Again, the target was immobilized onto a Biolayer Interferometry sensor probe and then incubated with each aptamer clone. The results are presented below (FIGS. 26-30).

[2] = molecular target: T2, CotEC chitinase (rCotEC P381-F712) (Clostridium difficile); assay: BLI; settings: tags: C-terminal His
[3] = molecular target: CdeM (Clostridium difficile); assay: BLI; settings: tags: His
[4] = molecular target: CotE (rCotE N281-F712) (Clostridium difficile); assay: SPR; settings: tags: C-terminal His
Experimental: (§1) For CotE D2, CotE H2 and CotEC chitinase, aptamers were spotted on a gold surface at a concentration of 5 μM in PBS at a volume of approximately 10 nL in triplicate. Negative aptamers of the same length as the positive aptamers were spotted in the same manner, also in triplicate. Protein was then injected over the chip at a volume of 200 μL, with a flow rate of 50 μL/min in a Horiba (OpenPlex) surface plasmon resonance imaging (SPRi) instrument. Resonance due to binding was obtained by subtracting total resonance on the negative sequences from total resonance on the positive sequences. Disassociation values were computed with the following equation: dx/dt˜−kd*x, wherein dx/dt is the derivative of resonance values as a function of time and x is the resonance value for any given time point. Association values were computed with the following equation: dx/dt˜ka*c*Rmax−(ka*c+kd)*x, where x is the resonance due to binding at specific time points, c is the concentration of injectant, and Rmax is the maximum resonance observed.
(§2) For aptamer CdeC D1 (SEQ ID No 6), the KD was not determined due to protein aggregation.

[5] = molecular target: T1, CotA; assay: SPR; CotA immobilized on hydrogel chip by EDC, aptamer injected; settings: tags: His6
Experimental: For CotA C1, the protein was immobilized on a hydrogel chip with EDC-mediated conjugation between primary amines on the protein (side chains on residues) and carboxylic acid groups on the surface of the chip. A protein of similar size was immobilized in the same manner as a negative control. […] For CdeC D1, the protein was received as aggregated, insoluble balls of protein. The binding assay was performed by incubating fluorescently labeled aptamers (FAM) with the protein, and then spinning the tubes down in a microcentrifuge to remove unbound. The pellet was resuspended in selection buffer and spun down again. Bound aptamers were eluted by adding 6 M urea, and spinning again, retaining the supernatant. The aptamers were cleaned up with PCR cleanup columns and the fluorescence was read on a Tecan Sapphire II fluorometer. Excitation was at 497 nm, and emission was at 515 nm. The amount of fluorescence measured in the eluant was divided by the total amount of fluorescence of all fractions.
as §2

[6] = molecular target: T2, CotEC chitinase (rCotEC P381-F712); assay: SPR; settings: tags: C-terminal His
Experimental: as §1, §2

B1: CotA_B1 (ssDNA)
DNA: CCAGTGTAGACTACTCAATGCTTAAGTTCTGGGGACACGTGATGAACGCATTTAATGGGGCGTACTATCCACAGGTCAACC
binding result [1]: binds

B2: Chitinase_D10 (ssDNA)
DNA: CCAGTGTAGACTACTCAATGCCCTATTAGCTGTATCGATCCGTTTAGTCGCTCCTCCGATAGTACTATCCACAGGTCAACC
binding result [2]: binds

B3: CdeM_E2 (ssDNA)
DNA: CCAGTGTAGACTACTCAATGCCTTCCATTCACCTACCGAGCTAAGCGTTCGACTTAGGTCTGTACTATCCACAGGTCAACC
binding result [3]: binds

B4: CotE_D2 (ssDNA)
DNA: CCAGTGTAGACTACTCAATGCTCGACATTTCCGCCCCGACGGCCCTCCTAGTGATGGGGAGAGTACTATCCACAGGTCAACC
Kd [4]: > 250 nM

B5: CotA_C1 (ssDNA)
DNA: CCAGTGTAGACTACTCAATGCCGTGGACTGGTCGGGTTTGGATTCGGCAGATGAATCACTAGTACTATCCACAGGTCAACC
Kd [5]: 6.87 nM

B6: Chitinase_D11 (ssDNA)
DNA: CCAGTGTAGACTACTCAATGCCTGGTAAATCGATGACCGCTGCCTCGCCTGAGTAATCATCGTACTATCCACAGGTCAACC
Kd [6]: 254 nM

B7: Chitinase_H11 (ssDNA)
DNA: CCAGTGTAGACTACTCAATGCCTTGTAAGAAGAACAATCGCCGCTTCGCCTGAATAGGTTCGTACTATCCACAGGTCAACC
binding result [2]: binds
